Key:
[1] = target: scavenger receptor CD-36 pulled down from macrophage membrane extracts or lysates (UniProt P16671 2-472); test: plate binding assay on CD-36 pulled down from macrophage membrane extracts
[2] = target: T1, scavenger receptor SR-AI pulled down from macrophage membrane extracts or lysates (UniProt P21757 1-451); test: plate binding assay on SR-AI pulled down from macrophage membrane extracts
T1 construct: also called SR-A1
T1 sequence (looked up): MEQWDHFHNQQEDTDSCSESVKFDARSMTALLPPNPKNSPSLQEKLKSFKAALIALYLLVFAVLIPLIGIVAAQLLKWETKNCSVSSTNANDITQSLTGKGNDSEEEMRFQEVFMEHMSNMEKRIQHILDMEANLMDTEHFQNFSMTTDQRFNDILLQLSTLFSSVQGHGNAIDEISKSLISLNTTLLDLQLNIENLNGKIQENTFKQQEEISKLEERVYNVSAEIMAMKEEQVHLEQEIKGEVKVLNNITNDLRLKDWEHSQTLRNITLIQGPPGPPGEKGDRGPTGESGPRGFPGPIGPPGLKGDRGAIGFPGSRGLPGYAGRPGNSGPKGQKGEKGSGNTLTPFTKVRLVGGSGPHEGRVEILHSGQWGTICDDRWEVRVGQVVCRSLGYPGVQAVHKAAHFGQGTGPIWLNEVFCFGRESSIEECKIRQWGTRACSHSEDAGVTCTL

Chain of scavenger receptor CD-36 pulled down from macrophage membrane extracts or lysates (P16671 2-472 limits assumed): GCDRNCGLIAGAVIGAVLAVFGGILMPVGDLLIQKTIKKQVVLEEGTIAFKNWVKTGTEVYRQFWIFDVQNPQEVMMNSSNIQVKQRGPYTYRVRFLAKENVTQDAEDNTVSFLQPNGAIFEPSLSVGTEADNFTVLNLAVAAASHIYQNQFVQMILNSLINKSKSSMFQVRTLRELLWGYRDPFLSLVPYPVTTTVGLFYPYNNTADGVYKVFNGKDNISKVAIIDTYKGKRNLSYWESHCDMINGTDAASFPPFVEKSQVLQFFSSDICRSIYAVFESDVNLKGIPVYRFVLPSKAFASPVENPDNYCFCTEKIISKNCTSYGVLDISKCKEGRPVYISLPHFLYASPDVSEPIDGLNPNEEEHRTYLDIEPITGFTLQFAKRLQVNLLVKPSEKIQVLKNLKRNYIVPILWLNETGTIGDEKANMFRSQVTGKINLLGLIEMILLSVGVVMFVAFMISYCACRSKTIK

B1: HIS-tagged HSP27 polypeptide fragment rC1 (other)
chain: MHHHHHHHHDDDDKGGDRWRVSLDVNHFAPDELTVKTKDGVVEITGKHEERQDEHGYISRCFTRKYTLPPGVDPTQVSSSLSPEGTLTVEAPMPKLSTQSNEITIPVTFESRAQLGGPEAAKSDETAAK
notes: also called HSP27 rC1; HSP27 fragment rC1
binding result [1]: no binding | binding result [2]: no binding

Source: patent publication US20230210943A1 (PEMI31 THERAPEUTICS, published 2023)
